Assay: yeast display, Sf9 membrane polyspecificity reagent, FACS + sequencing; frameworks hold sequencing errors
How it was run: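 A nanobody's polyreactivity label depends on the gate it was sorted from. Yeast display cells were stained with 10% biotinylated, detergent-solubilized Sf9 membrane reagent for 1 hour at 4 °C, enriched on streptavidin microbeads and sorted by FACS. The low and high (top ~1%) gates were set on anti-HA fluorescence for expression and streptavidin fluorescence for reagent binding.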

Question: For “QVQLVESGGGLVQAGGSLRISCAASGSTFSRNVMGWYRQAPGKERELVAAISRGGSTNYADSVKGRFTISRDNAKKTVYLQMNSLKTEVTAVYYCNAPRLGKFYYWGQGTQVTVSS”, which “polyreactivity (PSR sort gate)” value is on record?
Answer: low polyreactivity

Question: With “QVQLEESGGGLVQAGGSLRLSCAASGSTCPTNAIGWYRQAPRKERELVADITIRRGGTSYADSVKGRFTMSRDNAKNTVYLQMNSLKPEDTAVYYCARSKSTELKRLLYDSWGQGTQVTVSS” as the sequence, how does the “polyreactivity (PSR sort gate)” value read?
Answer: low polyreactivity

Question: Which “polyreactivity (PSR sort gate)” value does the source give for “QVQLVESGGGLVQAGGSLRLSCAASGSTFFTNTMGWYRQAPGKERELVAAISKSGGSTYYADSVKGRFTISRDNAKNTVYLQMNSLKPEDTAVYYCAASDRYGGRDYWGQGTQVTVSS” here?
Answer: high polyreactivity

Question: Which “polyreactivity (PSR sort gate)” value does the source give for “QVQLVDSGGGLVQAGGSLRLSCAASGRIFYPYAMGWYREATGKERELVAAMTRRTASTYYADSVKGRFTISRDNAKNTVYLQMNSLKPQDTAVYYCAAVSYLKRPYYAGYYYWGQGTQVTVSS” here?
Answer: high polyreactivity

Question: Which “polyreactivity (PSR sort gate)” value does the source give for “QVHLVESGGGLVQAGGSLRLSCAASGSTLSFYAMGWYRQAPGKERELVAAISYSTGTTYYADSVKGRFTISRDNAKNTVYLQMNSLKPEDSAVYYCAARWVWLHSRYDYWGQGTQVTVSS” here?
Answer: high polyreactivity

Question: Which “polyreactivity (PSR sort gate)” value does the source give for “QVQLVESGGGLVQAGGSLRLSCAASGSTLSDNAMGWYRQAPGKERELVASISWSGGTYYADSVKGRFTISRDNAKNTVYLQMNSLKPEDTAVYYCAAYIYYNYSRQYWFDYWGQGTQVTVSS” here?
Answer: low polyreactivity

Question: With “QVQLVESGGGLVQAGGSLRLSCAASGLIFRYYSMGWYRQAPGKERELVAAISWTGGSTYYADSVKGRFTISRDNAKYTVYLQLNSLKPEDTAVYYCIAGQWRYPGLYYYWGQGTQVTVSS” as the sequence, how does the “polyreactivity (PSR sort gate)” value read?
Answer: high polyreactivity

Question: Which “polyreactivity (PSR sort gate)” value does the source give for “QVQLVESGGGLVQAGGSLRLSCAASGYRFERNAMGWYIQAPGKERELVAAITDDGDDTYYADSVKGRFTISRDNAKNTVYLQINSLKPEDYAVYYWAKDLYYGDYYYWGQGTQVTVSS” here?
Answer: low polyreactivity

Question: Which “polyreactivity (PSR sort gate)” value does the source give for “QVQLVESGGGLVQAGGSLRLSCAASGFIFYPYAMGWYRQAPGKEREVVAVITSGGRTYYADSVKGRFTISRDNAKNTVYLQMNSLKPEDTAVYYCAARYGRIHWKANWPEYGYWGQGTQVTVSS” here?
Answer: low polyreactivity

Question: For “QVQLVQSGGGLLQAGGSLRLSSAASGYTFGYYARGCYREAPGQERELVAAITSGGTTNYADTVKGRFTISRDNAKNTVYLQINSLKPEDTAVSYCNAVCTFVRYWTDGRDGVTYDYWGQGTQVTVSS”, which “polyreactivity (PSR sort gate)” value is on record?
Answer: low polyreactivity

Question: Which “polyreactivity (PSR sort gate)” value does the source give for “QVQHVESGGVLVQAGGSLRLSCAASGSIFYPNAMGWYRQAPGKERELVAAISSSGGTNYADSVKGRFTISRDNAKNTVYLQMNSLKPEDTAVYYCNARDKVRYRFSRMDYWGQGTQVTVSS” here?
Answer: low polyreactivity

Question: With “QVQLVESGGGLVQAGGSLRLSCAASGRIFAKNVMGWYRQGPGKEWELVAAISRSGGSTYYADSVKGRFSISRDNAKNTVYLQMNSLKPEDTAVSYCGAYYGPDSARYYGGYEYWGQGTQVTVSS” as the sequence, how does the “polyreactivity (PSR sort gate)” value read?
Answer: high polyreactivity

Question: With “QVQLVESGGGLVQAGGSLRLSCAASGFTFRYYAMGWYRQAPGKEREFVAAITRSGGRTYYADSVKGRFTISRDNAKNTVYLQMNSLKPEDTAVYYCAARYVSRFDWGQGTQVTVSS” as the sequence, how does the “polyreactivity (PSR sort gate)” value read?
Answer: high polyreactivity

Question: With “QVQLVESGGGLVQAGGSLRLSCAASGSTFSEYVMGWYRQAPGKERELVAAIRSNGGSTYYADSVKGRFTISRDNAKNTVYLQMNSLKPEDTAVYYCNRVYSRRTYNSPLYDYWGQGTQVTVSS” as the sequence, how does the “polyreactivity (PSR sort gate)” value read?
Answer: high polyreactivity

Question: Which “polyreactivity (PSR sort gate)” value does the source give for “QVQLVESGGGLVQAGGSLRLSCAASGSTFFYNAMGWYRQAPGKERELVAAISKRGDRTYYADSVKGRFTISRDNAKNTVYLQMNSLKPEDTAVYYCAADSYSFSYYIEYDYWGQGTQVTVSS” here?
Answer: high polyreactivity

Question: Which “polyreactivity (PSR sort gate)” value does the source give for “QVQLVESGGGLVQAGGSLRLSCAASGSIFYYNTMGWYRQAPGKERELVAAISRSGTSTFYADSVKGRFTISRDYAKNTVYLQMNSLKPEDTAVYYCNAESLGWYRLYTVDYWGQGTQVTVSS” here?
Answer: low polyreactivity

Question: For “QDQLEESGGGLVQAGGSLRLSFAASGSTFYGYARGWYRPAPGKERELVAAISVNGGSTYYADSVKGRFTISRDNAKNTVYLQMNSLKPDETAVYYCAAGSGWRFDYWGQGTQVTVSS”, which “polyreactivity (PSR sort gate)” value is on record?
Answer: low polyreactivity

Question: Which “polyreactivity (PSR sort gate)” value does the source give for “QVQLVESGGGLVQAGGSLRLSCAASGSTFLYYAMGWYRQAPGKERELVARITTRVGRTYYADSVKGRFTISRDNAKNTVYFQMNSLKPEDTAVYYCAAYPDYSYYYWGQGTQVTVSS” here?
Answer: high polyreactivity

Question: Which “polyreactivity (PSR sort gate)” value does the source give for “QVQLVESGGGLVQAGGSLRLSCAASGRTFRSYAMGRYRQAPGKVRELVAAISYGGGSTYYADSVKGRFTISRDNAKNTVYLQMNSLKPEDTAVYYCAAAGNKRGGYDYWGQGTQVTVSS” here?
Answer: high polyreactivity

Question: With “QLQLQESGGGLVQAGGSLRLSCAESGTIFGWDRMGRYRQAPGKERELVATIDNRGSTNYADSVKGRFTISRDNAKNTLFPQMNSLKPDDTEVYYCAVVGPTPQYHLYWGEGTQVTVSS” as the sequence, how does the “polyreactivity (PSR sort gate)” value read?
Answer: high polyreactivity

Question: For “QVQLVESGGGLVQAGGSLRLSCAASGIMFTLYAMGWYRQAPGKERELVAAISGSGGSTYYAASVKGRFTISRDTAKKTVNLQMNSLKPEDTAVSYCRLAPRYRTGGYWGQGTQVTVSS”, which “polyreactivity (PSR sort gate)” value is on record?
Answer: high polyreactivity

Question: With “QVQLVESGGGLVQAGGSLRLSCAASGYIFYRNAMGWYRQAPGKEREFVAAISSSGVSTYYADSVKGRFTISRDTAKNTVYLQMNSLKPEDTAVYYCNTGYIFSSFYSSKYGYWGQGTQVTVSS” as the sequence, how does the “polyreactivity (PSR sort gate)” value read?
Answer: low polyreactivity

Question: With “QVQLVESGGGLVQAGGSLRLSCAASGSNIRSNAMGWYRQAPGKERELVAAISRTGGRTYYADSVKGRFTISRDNEKNTVYLQMKSLKPEYTAVYYCAASSSGSGGYWGQCTQVTVSS” as the sequence, how does the “polyreactivity (PSR sort gate)” value read?
Answer: high polyreactivity

Question: Which “polyreactivity (PSR sort gate)” value does the source give for “QVQLVESGGGLVQAGGSLRLSCAASGRIFTYYAMGWYRQAPGKERELVAAISSGGSTYYADSGKGRFTISRDNAKNTVSLQMNSLKPEDTAVYYCAADTIYYFPYDYWGQGTQVTVSS” here?
Answer: high polyreactivity

Question: Which “polyreactivity (PSR sort gate)” value does the source give for “QVQLVESGGGLVQAGGSLRLSCAASGITFVRYAMGWYRQAPGKERELVAAINSDGNTYYADSVKGRFTISRDTAKNTVYLQLNSLKPEDTACYYCAAGQGAGVDYWGQGTQVTVSS” here?
Answer: high polyreactivity

Question: With “QVQLVESGGGLVQAGGSLRLSCAASGITFGWYAMGWYRQAPGKERELVAAISWSGGTTYYADSVKGRFTISRDNAKNTVYLQMNSLKPEDTAVYYCAATWYYPTVYAGNYWGQGTQVTVSS” as the sequence, how does the “polyreactivity (PSR sort gate)” value read?
Answer: high polyreactivity

Question: For “QVQLVESGGGLVQAGGSLRLSCAASGRIFAWYVMGWYRQAPGKEREFVAAIRWRSGSTHYADSVKGRFTISRDNAKNTVYLQMNSLKPEDTAVYYCARDVHGLLDYWGQGTQVTVSS”, which “polyreactivity (PSR sort gate)” value is on record?
Answer: high polyreactivity

Question: Which “polyreactivity (PSR sort gate)” value does the source give for “QVQRVESGGGLVQAGGSLRLSCAASGSIFNPYAMGWYRQARGKVRELGAAISKSGTSTSYADSRKGRFTISRDNAKNTVYLQMNSLKPEDTAVYYCAVQVRRRYNYWGQGTQETVSS” here?
Answer: high polyreactivity

Question: With “QVQLVESGGGLVQAGGSLRLSCAASGSIFYIYAMGWYRQAPGKERELVAAINWSGGDTYYADSVKGRFTISRDNAKNTVYLQMNSLKPEDTAVYYCAALLDSEYEYWGQGTQVTVSS” as the sequence, how does the “polyreactivity (PSR sort gate)” value read?
Answer: high polyreactivity

Question: For “QVQLVESGGGLVQAGGSLRLSCAASGRIFYYYGMGWYRQAPGKERELVAAISNGGRTYYADSVKGRFTISRDNAKNTVYLQMNSLKPEDTAVDYCAALTRGRGGYDYWGQGTQVTVSS”, which “polyreactivity (PSR sort gate)” value is on record?
Answer: high polyreactivity

Question: Which “polyreactivity (PSR sort gate)” value does the source give for “QVQLVESGGGLVQAGGSLRLSCAASGSIFSDYTMGWYRQAPGKERELVAAISGIGGSTYYADSVKGRFTISRDNAKNTVYLQMNSLKPEDTAVYYCAADDYYYPYVSHDYWGQGTQVTVSS” here?
Answer: low polyreactivity

Question: For “QVQLVESGGGLDQAGGSLRLSCAASGSIFGYAMGWYRQAPGKERELLAAITDSGGRTYYADSVKGRFTISRDNAKNTVYLQMNSLKPEDTAVYYCAKTWYPWSRYGYYRRYDSWGQGTQVNVSS”, which “polyreactivity (PSR sort gate)” value is on record?
Answer: low polyreactivity

Source: the nanobody polyreactivity screen of Harvey et al. (2022)
